Where two headings read alike, the source gives them in different places. Some results are limits rather than exact numbers.

One assay has as its system ERK. Nature of the assay: Western blot of ERK activation (anti-diphosphorylated ERK) in PC12 cells. Conditions: PC12 cells treated with 100 ng/ml EGF for 0 to 120 min. The format is cell-based. Here is the method:
(§1) In order to confirm the simulation, PC12 cells treated with EGF (100 ng/ml) were used to measure the time data tracking the activation levels of MEK and ERK, respectively. […] Western blot analysis was performed as follows. PC12 cells were treated with 100 ng/ml EGF for 0 to 120 min. Dissolved protein samples were reacted by using anti-phosphorylated MEK antibodies and anti-diphosphorylated ERK antibodies. Then, the resultant was reacted with anti-HRP (horse radish peroxidase)-conjugated secondary antibodies and confirmed the presence of a band via ECL chemoluminscence.
(§2) PC12 cells treated with EGF or nerve growth factor (NGF) were examined to evaluate the efficacies of PD09859 (10 μM) and U0126 (0.01-10 μM) in respect of MEK and ERK activation. Western blot analysis was performed as follows. PC12 cells treated with PD09859 and U0126 were treated with 100 ng/ml of EGF or NGF for 5 min. Then, the resulting protein sample was separated by performing SDS/PAGE, and then blotted by using anti-phosphorylated MEK and anti-diphosphoryated ERK antibodies. Again, the resultant was blotted by using anti-HRP (horseradish peroxidase) conjugated secondary antibodies and identified in bands by ECL chemo-luminescence.
Background: A western blot detects proteins with antibodies after separation by electrophoresis.

In the next assay the test system is MEK. Nature of the assay: Western blot of MEK activation (anti-phosphorylated MEK) in PC12 cells. It counts as cell-based. Here is the method:
as §1, §2

The next assay deals with EGFR. Conditions: cited from earlier work.

B1: EGF: peptide growth factor composed of 55 amino acids in a long chain (protein, UniProt P01133 23-1207, looked up)
Pro-epidermal growth factor: PQHWSCPEGTLAGNGNSTCVGPAPFLIFSHGNSIFRIDTEGTNYEQLVVDAGVSVIMDFHYNEKRIYWVDLERQLLQRVFLNGSRQERVCNIEKNVSGMAINWINEEVIWSNQQEGIITVTDMKGNNSHILLSALKYPANVAVDPVERFIFWSSEVAGSLYRADLDGVGVKALLETSEKITAVSLDVLDKRLFWIQYNREGSNSLICSCDYDGGSVHISKHPTQHNLFAMSLFGDRIFYSTWKMKTIWIANKHTGKDMVRINLHSSFVPLGELKVVHPLAQPKAEDDTWEPEQKLCKLRKGNCSSTVCGQDLQSHLCMCAEGYALSRDRKYCEDVNECAFWNHGCTLGCKNTPGSYYCTCPVGFVLLPDGKRCHQLVSCPRNVSECSHDCVLTSEGPLCFCPEGSVLERDGKTCSGCSSPDNGGCSQLCVPLSPVSWECDCFPGYDLQLDEKSCAASGPQPFLLFANSQDIRHMHFDGTDYGTLLSQQMGMVYALDHDPVENKIYFAHTALKWIERANMDGSQRERLIEEGVDVPEGLAVDWIGRRFYWTDRGKSLIGRSDLNGKRSKIITKENISQPRGIAVHPMAKRLFWTDTGINPRIESSSLQGLGRLVIASSDLIWPSGITIDFLTDKLYWCDAKQSVIEMANLDGSKRRRLTQNDVGHPFAVAVFEDYVWFSDWAMPSVMRVNKRTGKDRVRLQGSMLKPSSLVVVHPLAKPGADPCLYQNGGCEHICKKRLGTAWCSCREGFMKASDGKTCLALDGHQLLAGGEVDLKNQVTPLDILSKTRVSEDNITESQHMLVAEIMVSDQDDCAPVGCSMYARCISEGEDATCQCLKGFAGDGKLCSDIDECEMGVPVCPPASSKCINTEGGYVCRCSEGYQGDGIHCLDIDECQLGEHSCGENASCTNTEGGYTCMCAGRLSEPGLICPDSTPPPHLREDDHHYSVRNSDSECPLSHDGYCLHDGVCMYIEALDKYACNCVVGYIGERCQYRDLKWWELRHAGHGQQQKVIVVAVCVVVLVMLLLLSLWGAHYYRTQKLLSKNPKNPYEESSRDVRSRRPADTEDGMSSCPQPWFVVIKEHQDLKNGGQPVAGEDGQAADGSMQPTSWRQEPQLCGMGTEQGCWIPVSSDKGSCPQVMERSFHMPSYGTQTLEGGVEKPHSLLSANPLWQQRALDPPHQMELTQ
modifications: Pro-epidermal growth factor
notes: peptide growth factor composed of 55 amino acids in a long chain
In the case of B1, in the assay on ERK, the “ERK activation, time course” value is recorded as “temporary activation”. For the same molecule, the “MEK activation, time course” value in the assay with MEK (PC12 cells treated with 100 ng/ml EGF for 0 to 120 min) is on record as “temporary activation”. Moreover, in the assay on MEK (PC12 cells treated with EGF 100 ng/ml for 5 min), the MEK activation result was “became still higher”. Besides, the Kd (in general, the constant that tells how readily two partners part at equilibrium) is less than 1 nM on EGFR (EGFR high affinity binding, read-out: dissociation constant (Kd), interaction with a high affinity) and 6 to 12 nM on EGFR (EGFR low affinity binding, read-out: dissociation constant (Kd), interaction with a low affinity).

The values are drawn from patent publication US20060200330A1, “Methods and systems for modeling and simulating biochemical pathways” (KOREA INSTITUTE OF SCIENCE AND TECHNOLOGY, priority 2005, published 2006).
